According to patent US20220098315A1 (Novartis, published 2022):
Blank lines part the entries; values can stand above or below the molecule they belong to.

Tests used:
[1] = molecular target: recombinant human CD40 (human) (UniProt P25942); assay: SPR (Biacore T100), antibody captured on Protein A, CD40 antigen as analyte, 25 C, 1:1 model
[2] = molecular target: human CD40 on cells (human, UniProt P25942 21-277); assay: cell-based or functional assay
Chain of human CD40 on cells (P25942 21-277 limits assumed): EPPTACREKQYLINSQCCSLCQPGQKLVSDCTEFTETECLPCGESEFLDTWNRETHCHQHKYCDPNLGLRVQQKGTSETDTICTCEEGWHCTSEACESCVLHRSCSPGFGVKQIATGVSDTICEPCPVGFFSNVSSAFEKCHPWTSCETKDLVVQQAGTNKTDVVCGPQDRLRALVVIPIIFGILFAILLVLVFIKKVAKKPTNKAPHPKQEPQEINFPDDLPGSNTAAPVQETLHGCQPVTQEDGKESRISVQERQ

Chain of recombinant human CD40 (human) (P25942 21-193 limits assumed): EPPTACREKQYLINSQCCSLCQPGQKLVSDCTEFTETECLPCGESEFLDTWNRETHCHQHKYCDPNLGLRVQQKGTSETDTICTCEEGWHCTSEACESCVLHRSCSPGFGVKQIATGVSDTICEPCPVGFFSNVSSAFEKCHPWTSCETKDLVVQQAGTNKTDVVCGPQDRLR

Kd [1]: 0.467 nM
koff [1]: 0.000126 s⁻¹
kon [1]: 284000 M⁻¹ s⁻¹
Molecule: HCD122 (antibody)

IC50, rCD154-induced proliferation of human PBMCs [2]: 0.12 nM
B1: CFZ533 (antibody, human IgG1, kappa, N297A, V domains shown)
VH: QVQLVESGGGVVQPGRSLRLSCAASGFTFSSYGMHWVRQAPGKGLEWVAVISYEESNRYHADSVKGRFTISRDNSKITLYLQMNSLRTEDTAVYYCARDGGIAAPGPDYWGQGTLVTVSS
VL: DIVMTQSPLSLTVTPGEPASISCRSSQSLLYSNGYNYLDWYLQKPGQSPQVLISLGSNRASGVPDRFSGSGSGTDFTLKISRVEAEDVGVYYCMQARQTPFTFGPGTKVDIRR
